Here are results for six molecules from patent publication US20250388676A1.

Substitutions are numbered along the chain they refer to.

In one assay the target is activated human T cells. Nature of the assay: flow cytometry on activated primary human T cells, detection with anti-human IgG Fc F(ab')2 [panel A]. (In flow cytometry, cells or beads pass a laser one at a time.)
The target in the next assay is activated cyno T cells. Nature of the assay: flow cytometry on activated primary cynomolgus T cells, detection with anti-human IgG Fc F(ab')2 [panel B].
In assay [1] the target is human CD27 on reporter cells (human) (UniProt P26842). Nature of the assay: cell-based or functional assay.
human CD27 on reporter cells (human), sequence (P26842 20-260): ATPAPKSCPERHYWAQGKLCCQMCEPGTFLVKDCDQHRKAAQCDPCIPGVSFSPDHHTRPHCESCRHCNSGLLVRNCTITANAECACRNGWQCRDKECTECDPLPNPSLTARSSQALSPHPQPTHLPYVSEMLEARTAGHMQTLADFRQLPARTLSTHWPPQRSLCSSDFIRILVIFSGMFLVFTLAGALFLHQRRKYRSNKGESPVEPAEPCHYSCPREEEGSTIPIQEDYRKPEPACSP
For assay [2], the target named is CD27 (analyte in solution) (UniProt P26842). Nature of the assay: SPR (Biacore), construct captured on CM5 chip via anti-human Fc or Fab, antigen as analyte, 25 C. Background: In SPR one partner is held on a chip, and binding of the other changes the refractive index at the surface.
CD27 (analyte in solution), sequence (P26842 20-191 limits assumed): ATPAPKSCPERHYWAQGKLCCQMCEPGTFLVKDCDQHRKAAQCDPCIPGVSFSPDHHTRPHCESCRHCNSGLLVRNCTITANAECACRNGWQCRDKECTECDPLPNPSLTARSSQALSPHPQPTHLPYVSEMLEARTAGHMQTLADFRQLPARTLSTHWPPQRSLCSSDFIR
Assay [3] has as its target cynomolgus GITR (cynomolgus monkey). The assay can be described thus: flow cytometry on NFkB-NlucP/HEK293 cells expressing cyno GITR, detection with anti-human IgG Fc F(ab')2 [panel B].
Assay [4] concerns the target human OX40 on Jurkat NF-kB-Luc2 OX40 reporter cells (human) (UniProt P43489). The assay can be described thus: cell-based or functional assay.
For assay [5], the target named is OX40 (analyte in solution) (UniProt P43489). The assay can be described thus: SPR (Biacore), construct captured on CM5 chip via anti-human Fc or Fab, antigen as analyte, 25 C.
OX40 (analyte in solution), sequence (P43489 29-214 limits assumed): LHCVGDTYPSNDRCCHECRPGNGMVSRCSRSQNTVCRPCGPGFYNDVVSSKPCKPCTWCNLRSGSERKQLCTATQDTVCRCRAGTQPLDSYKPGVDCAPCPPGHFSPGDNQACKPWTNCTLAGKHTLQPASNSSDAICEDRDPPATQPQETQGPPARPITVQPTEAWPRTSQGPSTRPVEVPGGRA
Assay [6] deals with human HVEM on Jurkat NF-kB reporter cells (human) (UniProt Q92956). Nature of the assay: cell-based or functional assay.
human HVEM on Jurkat NF-kB reporter cells (human), sequence (Q92956 39-283): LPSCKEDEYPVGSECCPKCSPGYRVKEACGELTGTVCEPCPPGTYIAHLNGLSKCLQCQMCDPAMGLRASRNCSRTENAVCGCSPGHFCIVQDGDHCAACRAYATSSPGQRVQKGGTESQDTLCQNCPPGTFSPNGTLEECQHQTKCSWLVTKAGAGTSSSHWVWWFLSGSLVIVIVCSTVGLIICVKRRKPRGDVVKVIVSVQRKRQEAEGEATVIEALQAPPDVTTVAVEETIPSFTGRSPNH
Assay [7] has as its target human LTBR on Jurkat NF-kB reporter cells (human) (UniProt P36941). The assay can be described thus: cell-based or functional assay.
Assay [8] addresses HVEM (analyte in solution) (UniProt Q92956). Nature of the assay: SPR (Biacore), construct captured on CM5 chip via anti-human Fc or Fab, antigen as analyte, 25 C.

HVEM (analyte in solution), sequence (Q92956 39-202 limits assumed): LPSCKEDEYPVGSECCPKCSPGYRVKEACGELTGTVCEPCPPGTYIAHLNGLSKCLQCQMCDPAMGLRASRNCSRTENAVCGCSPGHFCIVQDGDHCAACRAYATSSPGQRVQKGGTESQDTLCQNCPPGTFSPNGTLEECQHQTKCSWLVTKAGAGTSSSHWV
human OX40 on Jurkat NF-kB-Luc2 OX40 reporter cells (human), sequence (P43489 29-277): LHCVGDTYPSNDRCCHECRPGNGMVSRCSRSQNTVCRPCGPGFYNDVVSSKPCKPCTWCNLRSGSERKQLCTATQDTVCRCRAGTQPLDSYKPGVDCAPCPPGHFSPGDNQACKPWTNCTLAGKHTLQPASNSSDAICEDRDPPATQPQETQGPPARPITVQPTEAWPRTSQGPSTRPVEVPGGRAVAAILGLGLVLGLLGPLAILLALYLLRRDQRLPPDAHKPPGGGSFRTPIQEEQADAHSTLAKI
human LTBR on Jurkat NF-kB reporter cells (human), sequence (P36941 31-435): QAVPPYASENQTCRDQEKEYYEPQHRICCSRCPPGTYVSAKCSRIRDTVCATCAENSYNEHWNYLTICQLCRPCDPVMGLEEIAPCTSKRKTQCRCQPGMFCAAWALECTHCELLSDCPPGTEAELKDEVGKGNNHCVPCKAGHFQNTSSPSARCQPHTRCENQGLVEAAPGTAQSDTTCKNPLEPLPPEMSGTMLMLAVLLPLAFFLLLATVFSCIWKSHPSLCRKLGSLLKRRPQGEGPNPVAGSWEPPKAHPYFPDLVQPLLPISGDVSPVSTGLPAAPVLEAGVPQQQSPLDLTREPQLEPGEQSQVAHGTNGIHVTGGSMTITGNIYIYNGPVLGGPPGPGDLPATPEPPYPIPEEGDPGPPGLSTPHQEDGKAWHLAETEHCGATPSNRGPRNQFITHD

B1: GITRLmut/anti-PD-1 mAb1 (antibody, part only; not given: mutant GITRL, constant regions, linkers, not shown: a dimerising Fc or GST)
heavy, part: QLQLQESGPGLVKPSETLSLTCTVSGGSISTSSYFWGWIRQPPGKGLEWIGSIYRSGSTYYNPSLKSRVTISVDTSKNQFSLKLSSVTAADTAVYYCARGITGDPGDYWGQGTLVTVSS
light, part: EIVLTQSPATLSLSPGERATLSCGASQSVSINFLAWYQQKPGLAPRLLIYEASSRATGIPDRFSGSGSGTDFTLTISRLEPEDFAVYYCQQYGSSPYTFGQGTKLEIK
As usually defined, the EC50 (read off the curve) is the concentration giving half of the maximal effect. The low end stands for an effect from little substance, the high end for a need for much substance. For the molecule B1, the concentration giving a half-maximal response (EC50 (read off the curve)) with activated human T cells was 0.4 nM; with activated cyno T cells, 0.6 nM.

B2: GITRLmut/anti-PD-1 mAb2 (antibody, part only; not given: mutant GITRL, constant regions, linkers, not shown: a dimerising Fc or GST)
heavy, part: B1 heavy, part with T31S
light, part: B1 light, part with S30P, A56H, Q90G
B2: the EC50 (read off the curve) in the assay with activated human T cells stood at 0.1 nM; with activated cyno T cells, 0.2 nM.

B3: CD70 monospecific (protein, part only; not given: carrier Fab or Fc and linkers, not shown: another chain or arm of the molecule; a dimerising Fc or GST; large carriers; small tags and cut ends)
chain: GWDVAELQLNHTGPQQDPRLYWQGGPALGRSFLHGPELDKGQLRIHRDGIYMVHIQVTLAICSSTTASRHHPTTLAVGICSPASRSISLLRLSFHQGCTIASQRLTPLARGDTLCTNLTGTLLPSRNTDETFFGVQWVRPGGGGSGGGGSGWDVAELQLNHTGPQQDPRLYWQGGPALGRSFLHGPELDKGQLRIHRDGIYMVHIQVTLAICSSTTASRHHPTTLAVGICSPASRSISLLRLSFHQGCTIASQRLTPLARGDTLCTNLTGTLLPSRNTDETFFGVQWVRPGGGGSGGGGSGWDVAELQLNHTGPQQDPRLYWQGGPALGRSFLHGPELDKGQLRIHRDGIYMVHIQVTLAICSSTTASRHHPTTLAVGICSPASRSISLLRLSFHQGCTIASQRLTPLARGDTLCTNLTGTLLPSRNTDETFFGVQWVRP
For B3, the CD27 reporter EC50 in assay [1] stood at 1.9 nM. The Average binding Relative (RU) in assay [2] stood at 32.7 RU.

B4: GITRL/irrelevant control (antibody, part only; not given: irrelevant anti-TNP binding site, not shown: another chain or arm of the molecule; small tags and cut ends)
chain: QLETAKEPCMAKFGPLPSKWQMASSEPPCVNKVSDWKLEILQNGLYLIYGQVAPNANYNDVAPFEVRLYKNKDMIQTLTNKSKIQNVGGTYELHVGDTIDLIFNSEHQVLKNNTYWGIILLANPQFISGGGGSGGGGSQLETAKEPCMAKFGPLPSKWQMASSEPPCVNKVSDWKLEILQNGLYLIYGQVAPNANYNDVAPFEVRLYKNKDMIQTLTNKSKIQNVGGTYELHVGDTIDLIFNSEHQVLKNNTYWGIILLANPQFISGGGGSGGGGSQLETAKEPCMAKFGPLPSKWQMASSEPPCVNKVSDWKLEILQNGLYLIYGQVAPNANYNDVAPFEVRLYKNKDMIQTLTNKSKIQNVGGTYELHVGDTIDLIFNSEHQVLKNNTYWGIILLANPQFIS
For B4, the EC50 (read off the curve) in assay [3] was 0.02 nM. This lies in the picomolar range.

B5: OX40L monospecific (protein, part only; not given: carrier Fab or Fc and linkers, not shown: another chain or arm of the molecule; a dimerising Fc or GST; large carriers; small tags and cut ends)
chain: QVSHRYPRIQSIKVQFTEYKKEKGFILTSQKEDEIMKVQDNSVIINCDGFYLISLKGYFSQEVDISLHYQKDEEPLFQLKKVRSVNSLMVASLTYKDKVYLNVTTDNTSLDDFHVNGGELILIHQNPGEFCVLGGGGSGGGGSQVSHRYPRIQSIKVQFTEYKKEKGFILTSQKEDEIMKVQDNSVIINCDGFYLISLKGYFSQEVDISLHYQKDEEPLFQLKKVRSVNSLMVASLTYKDKVYLNVTTDNTSLDDFHVNGGELILIHQNPGEFCVLGGGGSGGGGSQVSHRYPRIQSIKVQFTEYKKEKGFILTSQKEDEIMKVQDNSVIINCDGFYLISLKGYFSQEVDISLHYQKDEEPLFQLKKVRSVNSLMVASLTYKDKVYLNVTTDNTSLDDFHVNGGELILIHQNPGEFCVL
In [4], B5 showed an OX40 reporter EC50 of 0.74 nM. Further, the Average binding Relative (RU) in [5] was 23.7 RU.

B6: LIGHT monospecific (protein, part only; not given: carrier Fab or Fc and linkers, not shown: another chain or arm of the molecule; a dimerising Fc or GST; large carriers; small tags and cut ends)
chain: LIQERRSHEVNPAAHLTGANSSLTGSGGPLLWETQLGLAFLRGLSYHDGALVVTKAGYYYIYSKVQLGGVGCPLGLASTITHGLYKRTPRYPEELELLVSQQSPCGRATSSSRVWWDSSFLGGVVHLEAGEKVVVRVLDERLVRLRDGTRSYFGAFMVGGGGSGGGGSLIQERRSHEVNPAAHLTGANSSLTGSGGPLLWETQLGLAFLRGLSYHDGALVVTKAGYYYIYSKVQLGGVGCPLGLASTITHGLYKRTPRYPEELELLVSQQSPCGRATSSSRVWWDSSFLGGVVHLEAGEKVVVRVLDERLVRLRDGTRSYFGAFMVGGGGSGGGGSLIQERRSHEVNPAAHLTGANSSLTGSGGPLLWETQLGLAFLRGLSYHDGALVVTKAGYYYIYSKVQLGGVGCPLGLASTITHGLYKRTPRYPEELELLVSQQSPCGRATSSSRVWWDSSFLGGVVHLEAGEKVVVRVLDERLVRLRDGTRSYFGAFMV
Regarding B6, the HVEM reporter EC50 in [6] amounted to 0.05 nM. The molecule further displayed an LTBR reporter EC50 in [7] of 0.0057 nM. The Average binding Relative (RU) in assay [8] came to 1.69 RU.
